Measurements taken from patent publication US20180282410A1 (Hoffmann-La Roche, published 2018).

T1: full-length human Robo 4 (on cells) (human, UniProt Q8WZ75 28-1007)
T1 construct: also called CHO-Robo 4; Robo 4 on HUVECs
T1 sequence: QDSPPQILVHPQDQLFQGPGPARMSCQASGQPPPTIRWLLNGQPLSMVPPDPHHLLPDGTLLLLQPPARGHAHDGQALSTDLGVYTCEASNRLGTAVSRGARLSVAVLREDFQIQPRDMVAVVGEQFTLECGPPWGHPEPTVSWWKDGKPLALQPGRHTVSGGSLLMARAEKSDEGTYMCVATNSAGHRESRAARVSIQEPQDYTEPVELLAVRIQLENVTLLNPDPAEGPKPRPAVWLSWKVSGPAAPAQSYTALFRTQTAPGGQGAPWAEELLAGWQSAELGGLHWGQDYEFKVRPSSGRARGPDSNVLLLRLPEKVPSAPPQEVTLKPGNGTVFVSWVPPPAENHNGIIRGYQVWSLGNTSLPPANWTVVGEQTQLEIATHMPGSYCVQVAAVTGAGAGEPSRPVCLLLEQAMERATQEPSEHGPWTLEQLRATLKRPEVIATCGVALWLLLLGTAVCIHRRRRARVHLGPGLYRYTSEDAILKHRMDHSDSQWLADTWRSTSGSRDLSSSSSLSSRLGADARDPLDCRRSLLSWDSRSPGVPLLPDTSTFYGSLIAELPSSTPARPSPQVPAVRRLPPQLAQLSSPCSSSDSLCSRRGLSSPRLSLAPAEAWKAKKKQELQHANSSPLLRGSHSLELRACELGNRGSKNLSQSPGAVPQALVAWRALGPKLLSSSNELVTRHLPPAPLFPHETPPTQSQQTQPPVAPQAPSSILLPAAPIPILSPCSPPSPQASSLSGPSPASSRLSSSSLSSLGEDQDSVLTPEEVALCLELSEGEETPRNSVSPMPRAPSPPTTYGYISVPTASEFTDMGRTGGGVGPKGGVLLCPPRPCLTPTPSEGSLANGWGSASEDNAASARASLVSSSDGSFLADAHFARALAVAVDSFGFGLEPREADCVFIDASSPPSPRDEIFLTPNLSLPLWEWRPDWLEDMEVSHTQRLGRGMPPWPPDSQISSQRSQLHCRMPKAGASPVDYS

T2: murine (mu) Robo 4 ECD-PreS-Avi-His (mouse)
T2 construct: also called recombinant murine Robo 4; murine Robo 4
T2 chain: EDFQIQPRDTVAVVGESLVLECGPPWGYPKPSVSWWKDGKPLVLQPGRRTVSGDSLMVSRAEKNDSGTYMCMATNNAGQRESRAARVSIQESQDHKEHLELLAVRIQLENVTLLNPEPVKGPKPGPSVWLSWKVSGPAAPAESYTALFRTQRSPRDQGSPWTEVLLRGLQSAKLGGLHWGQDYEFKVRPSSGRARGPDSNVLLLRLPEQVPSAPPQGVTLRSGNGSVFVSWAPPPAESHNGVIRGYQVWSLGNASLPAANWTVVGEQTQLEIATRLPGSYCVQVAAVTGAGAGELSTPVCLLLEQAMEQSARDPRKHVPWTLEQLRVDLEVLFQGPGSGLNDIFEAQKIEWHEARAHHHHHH


What was measured:
[1] = target: T3, human Robo 4 FN-like domain 2-Fc (human, UniProt P0DOX5 222-449 = IgG part); assay: SPR, IgG captured via anti-human Fab, domain-Fc as analyte
T3 construct: also called fibronectin-like domain 2
Method: (§1) All surface plasmon resonance (SPR) experiments are performed on a Biacore T100 at 25° C. with HBS-EP as running buffer (0.01 M HEPES pH 7.4, 0.15 M NaCl, 3 mM EDTA, 0.005% Surfactant P20 (Biacore)).
(§2) For determination of the epitope of the four analyzed anti-Robo 4 antibodies, domain variants of human Robo 4 (FN-like domain 1, FN-like domain 2, Ig-like domain 1 and Ig-like domain 2) were used. Anti-Robo 4 antibodies were captured for 60 s at 50 nM on a sensorchip surface with immobilized anti-human Fab specific antibody (GE Healthcare). Domain variants of human Robo 4 were passed at a concentration range of 0.46-1000 nM with a flow of 30 μl/min through the flow cells over 90 s. The dissociation was monitored for 120 s. Bulk refractive index differences were corrected for by subtracting the response obtained on reference flow cell as described above.

[2] = target: T4, human Robo 4 Ig-like domain 2-Fc (human, UniProt P0DOX5 222-449 = IgG part); assay: as above
T4 construct: also called IgG-like domain 2
Method: as §1, §2

[3] = target: T5, human Robo 4 FN-like domain 1-Fc (human, UniProt P0DOX5 222-449 = IgG part); assay: as above
T5 construct: also called fibronectin-like domain 1
Method: as §1, §2

[4] = target: T6, human Robo 4 Ig-like domain 1-Fc (human, UniProt P0DOX5 222-449 = IgG part); assay: as above
T6 construct: also called IgG-like domain 1
Method: as §1, §2

[5] = target: T1, full-length human Robo 4 (on cells); assay: flow cytometry on CHO cells stably expressing full-length human Robo 4
Method: Binding of anti-Robo 4 IgGs was tested on CHO cells stably expressing full-length human Robo 4 (CHO-Robo 4). Briefly, cells were harvested, counted and checked for viability.

[6] = target: T2, murine (mu) Robo 4 ECD-PreS-Avi-His; assay: SPR Biacore T100, biotinylated antigen on streptavidin chip, IgG as analyte (avidity)
Method: as §1
Determination of avidity was done by direct immobilization of biotinylated recombinant human, murine and cynomolgus Robo 4 on a Streptavidin sensor chip. Immobilization level ranged from 300 to 1000 RU. Anti-Robo 4 antibodies were passed through the flow cells for 220 s at 30 μl/min in a concentration range from 0.78-50 nM. Dissociation was monitored for 220 s. For the blank and the 25 nM injection dissociation was monitored for 600 s.
Kinetic constants were derived using the Biacore T100 Evaluation Software (vAA, Biacore), to fit rate equations for 1:1 Langmuir binding by numerical integration.

Binder | binding result [1] | Kd [2] | binding result [3] | Kd [4] | EC50 [5] | binding result [4] | Kd [6] | koff [6] | kon [6] | Kd [1] | binding result [2]
7G2 anti-Robo 4 IgG (antibody, V domains shown, also called 7G2 IgG) VH: not shown VL: EIVLTQSPGTLSLSPGERATLSCRASQSVSSSYLAWYQQKPGQAPRLLIYGASSRATGIPDRFSGSGSGTDFTLTISRLEPEDFAVYYCQQGQLPPRTFGQGTKVEIK | no binding (tested: 0.46-1000 nM) | 66.7 nM | no binding (tested: 0.46-1000 nM) | 151 nM | 4.6 nM |  |  |  |  |  | 
01F05 anti-Robo 4 IgG (antibody, V domains shown, also called 01F05 IgG) VH: QVQLKQSGAELVKPGASVKISCKTSVYTFTYGYMHWVEQKPGQGLEWIGRIDPDSGNSMYNQKFQGRATLTRDKSSSTVYMELRSLTSEDSAVYYCARSMRYSGYRDYALDLWGQGTQVTVSS VL: QLVLTQSPSASASLGASVKLTCTLSSQHSSYGITWLQQHPDKAPKYVMYLKSDGSHTKGADIPDRFSGSSSGVHRYLSISNVQPEDEAIYFCVTYDSTHVFGSGTQLTVLG |  |  | no binding (tested: 0.46-1000 nM) |  | 6.1 nM | no binding (tested: 0.46-1000 nM) | 0.19 nM | 7.32e-05 s⁻¹ | 373000 M⁻¹ s⁻¹ | 30.6 nM | no binding (tested: 0.46-1000 nM)

Now those with a lower EC50 [5], led by results:

binding result [1] | Kd [2] | binding result [3] | Kd [4] | EC50 [5] | binding result [4] | Kd [6] | koff [6] | kon [6] | Kd [1] | binding result [2] | Binder
no binding (tested: 0.46-1000 nM) | 4.9 nM | no binding (tested: 0.46-1000 nM) |  | 1.1 nM | no binding (tested: 0.46-1000 nM) | 1.07 nM | 0.000805 s⁻¹ | 750000 M⁻¹ s⁻¹ |  |  | 01E06 anti-Robo 4 IgG (antibody, V domains shown, also called 01E06 IgG) VH: EVQLVESGGGLSQPGNSLKLSCEASGFTFRNYDMSWVRQAPGKGLEWVAYISSGGGPIYYVDAVKGRFTISRDNAKNLLFLQMNNLRSEDTAVYYCARDLADIGVFDYWGQGTMVTVSS VL: DFKMTQSPDILSPSLGESVTITCQSSQNIYSNLAWYQQKPGEHPKLLIYTASILADGIPSRFTGSGSGTQFSLKISSLQPDDVANYYCQQYVYYRTFGPGTKLEIK
no binding (tested: 0.46-1000 nM) | 55.5 nM | no binding (tested: 0.46-1000 nM) |  | 2.5 nM | no binding (tested: 0.46-1000 nM) | 1.09 nM | 0.00115 s⁻¹ | 1.05e+06 M⁻¹ s⁻¹ |  |  | 01F09 anti-Robo 4 IgG (antibody, V domains shown, also called 01F09 IgG) VH: QIQLQESGPGLVKPSQSLSLTCSVTGYSISSGSLWTWIRQFPGNNLEWMGYISYAGGIDYNPSLTSRISITRDTSRNQFFLQLESVTTQDTATYYCATPGGYPFHFDYWGQGTMVTVSS VL: QPVLTQSPSASASLGASVKLTCTLNSQFSTYNIGWYQQHRDKPPKYVMFVKGDGGHSKADGIPDRFSGSSSGADRYLTISNIQAEDEAIYFCGADYNNAGQYGCVFGSGTHFTVLG
